The text below walks through data of patent publication US20140271457A1 (AbbVie / Abbott, published 2014).

For this experiment, the target named is Recombinant Human TNF-α/TNFSF1A (human, UniProt P01375 77-233). Put plainly: cell-based or functional assay.
Recombinant Human TNF-α/TNFSF1A, sequence (P01375 77-233 limits assumed): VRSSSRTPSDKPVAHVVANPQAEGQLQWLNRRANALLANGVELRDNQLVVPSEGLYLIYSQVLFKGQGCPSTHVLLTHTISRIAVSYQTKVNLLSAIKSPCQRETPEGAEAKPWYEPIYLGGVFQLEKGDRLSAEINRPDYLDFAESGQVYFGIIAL

B1: DVD2784 (bispecific antibody, IgG1)
VH: EVQLVQSGAEVKKPGASVKVSCKASGYTFANYGIIWVRQAPGQGLEWMGWINTYTGKPTYAQKFQGRVTMTTDTSTSTAYMELSSLRSEDTAVYYCARKLFTTMDVTDNAMDYWGQGTTVTVSSASTKGPEVTLRESGPGLVKPTQTLTLTCTLYGFSLSTSDMGVDWIRQPPGKGLEWLAHIWWDDVKRYNPALKSRLTISKDTSKNQVVLKLTSVDPVDTATYYCARTVSSGYIYYAMDYWGQGTLVTVSS
VL: DIQMTQSPSSLSASVGDRVTITCRASQDISQYLNWYQQKPGKAPKLLIYYTSRLQSGVPSRFSGSGSGTDFTLTISSLQPEDFATYFCQQGNTWPPTFGQGTKLEIKRTVAAPDIQMTQSPSSLSASVGDRVTISCRASQDIRNYLNWYQQKPGKAPKLLIFYTSKLHSGVPSRFSGSGSGTDYTLTISSLQPEDIATYYCQQGLTPPLTFGGGTKVEIKR
On to B1, for which the “N-Terminal VD huTNFα Neutralization Assay IC50” value is 0.006 nM.

B2: DVD2786 (bispecific antibody, IgG1)
VH: EVQLVQSGAEVKKPGASVKVSCKASGYTFANYGIIWVRQAPGQGLEWMGWINTYTGKPTYAQKFQGRVTMTTDTSTSTAYMELSSLRSEDTAVYYCARKLFTTMDVTDNAMDYWGQGTTVTVSSASTKGPEVTLRESGPGLVKPTQTLTLTCTLYGFSLSTSDMGVDWIRQPPGKGLEWLAHIWWDDVKRYNPALKSRLTISKDTSKNQVVLKLTSVDPVDTATYYCARTVSSGYIYYAMDYWGQGTLVTVSS
VL: DIQMTQSPSSLSASVGDRVTITCRASQDISQYLNWYQQKPGKAPKLLIYYTSRLQSGVPSRFSGSGSGTDFTLTISSLQPEDFATYFCQQGNTWPPTFGQGTKLEIKRTVAAPSVFIFPPDIQMTQSPSSLSASVGDRVTISCRASQDIRNYLNWYQQKPGKAPKLLIFYTSKLHSGVPSRFSGSGSGTDYTLTISSLQPEDIATYYCQQGLTPPLTFGGGTKVEIKR
B2: the “N-Terminal VD huTNFα Neutralization Assay IC50” value stood at 0.008 nM.

B3: DVD2787 (bispecific antibody, IgG1)
VH: EVQLVQSGAEVKKPGASVKVSCKASGYTFANYGIIWVRQAPGQGLEWMGWINTYTGKPTYAQKFQGRVTMTTDTSTSTAYMELSSLRSEDTAVYYCARKLFTTMDVTDNAMDYWGQGTTVTVSSASTKGPSVFPLAPEVTLRESGPGLVKPTQTLTLTCTLYGFSLSTSDMGVDWIRQPPGKGLEWLAHIWWDDVKRYNPALKSRLTISKDTSKNQVVLKLTSVDPVDTATYYCARTVSSGYIYYAMDYWGQGTLVTVSS
VL: DIQMTQSPSSLSASVGDRVTITCRASQDISQYLNWYQQKPGKAPKLLIYYTSRLQSGVPSRFSGSGSGTDFTLTISSLQPEDFATYFCQQGNTWPPTFGQGTKLEIKRTVAAPDIQMTQSPSSLSASVGDRVTISCRASQDIRNYLNWYQQKPGKAPKLLIFYTSKLHSGVPSRFSGSGSGTDYTLTISSLQPEDIATYYCQQGLTPPLTFGGGTKVEIKR
As for B3, the “N-Terminal VD huTNFα Neutralization Assay IC50” value was 0.005 nM.

B4: DVD2688 (bispecific antibody, IgG1)
VH: EVTLRESGPGLVKPTQTLTLTCTLYGFSLSTSDMGVDWIRQPPGKGLEWLAHIWWDDVKRYNPALKSRLTISKDTSKNQVVLKLTSVDPVDTATYYCARTVSSGYIYYAMDYWGQGTLVTVSSGGGGSGGGGSEVQLVESGGGLVQPGGSLRLSCAASGFTFSNYGVTWVRQAPGKGLEWVSMIWADGSTHYASSVKGRFTISRDNSKNTLYLQMNSLRAEDTAVYYCAREWQHGPVAYWGQGTLVTVSS
VL: DIQMTQSPSSLSASVGDRVTISCRASQDIRNYLNWYQQKPGKAPKLLIFYTSKLHSGVPSRFSGSGSGTDYTLTISSLQPEDIATYYCQQGLTPPLTFGGGTKVEIKRGGSGGGGSGDIQMTQSPSSLSASVGDRVTITCRASQLVSSAVAWYQQKPGKAPKLLIYWASARHTGVPSRFSGSGSGTDFTLTISSLQPEDFATYYCQQHYKTPFTFGQGTKLEIKR
Turning to B4, the “C-Terminal VD huTNFα Neutralization Assay IC50” value was 0.093 nM.

B5: DVD2738 (bispecific antibody, IgG1)
VH: EVTLRESGPGLVKPTQTLTLTCTLYGFSLSTSDMGVDWIRQPPGKGLEWLAHIWWDDVKRYNPALKSRLTISKDTSKNQVVLKLTSVDPVDTATYYCARTVSSGYIYYAMDYWGQGTLVTVSSGGGGSGGGGSEVQLVESGGGLVQPGGSLRLSCAASGFTFSNYGVEWVRQAPGKGLEWVSGIWADGSTHYADTVKSRFTISRDNSKNTLYLQMNSLRAEDTAVYYCAREWQHGPVAYWGQGTLVTVSS
VL: DIQMTQSPSSLSASVGDRVTISCRASQDIRNYLNWYQQKPGKAPKLLIFYTSKLHSGVPSRFSGSGSGTDYTLTISSLQPEDIATYYCQQGLTPPLTFGGGTKVEIKRGGSGGGGSGDIQMTQSPSSLSASVGDRVTITCKASQLVSSAVAWYQQKPGKAPKLLIYWASTLHTGVPSRFSGSGSGTDFTLTISSLQPEDFATYYCQQHYRTPFTFGQGTKLEIKR
Turning to B5, the “C-Terminal VD huTNFα Neutralization Assay IC50” value is 0.452 nM.

B6: DVD2783 (bispecific antibody, IgG1)
VH: EVQLVQSGAEVKKPGASVKVSCKASGYTFANYGIIWVRQAPGQGLEWMGWINTYTGKPTYAQKFQGRVTMTTDTSTSTAYMELSSLRSEDTAVYYCARKLFTTMDVTDNAMDYWGQGTTVTVSSGGGGSGGGGSEVTLRESGPGLVKPTQTLTLTCTLYGFSLSTSDMGVDWIRQPPGKGLEWLAHIWWDDVKRYNPALKSRLTISKDTSKNQVVLKLTSVDPVDTATYYCARTVSSGYIYYAMDYWGQGTLVTVSS
VL: DIQMTQSPSSLSASVGDRVTITCRASQDISQYLNWYQQKPGKAPKLLIYYTSRLQSGVPSRFSGSGSGTDFTLTISSLQPEDFATYFCQQGNTWPPTFGQGTKLEIKRGGSGGGGSGDIQMTQSPSSLSASVGDRVTISCRASQDIRNYLNWYQQKPGKAPKLLIFYTSKLHSGVPSRFSGSGSGTDYTLTISSLQPEDIATYYCQQGLTPPLTFGGGTKVEIKR
For the molecule B6, the “N-Terminal VD huTNFα Neutralization Assay IC50” value is 0.008 nM.

B7: DVD2689 (bispecific antibody, IgG1)
VH: EVTLRESGPGLVKPTQTLTLTCTLYGFSLSTSDMGVDWIRQPPGKGLEWLAHIWWDDVKRYNPALKSRLTISKDTSKNQVVLKLTSVDPVDTATYYCARTVSSGYIYYAMDYWGQGTLVTVSSASTKGPEVQLVESGGGLVQPGGSLRLSCAASGFTFSNYGVTWVRQAPGKGLEWVSMIWADGSTHYASSVKGRFTISRDNSKNTLYLQMNSLRAEDTAVYYCAREWQHGPVAYWGQGTLVTVSS
VL: DIQMTQSPSSLSASVGDRVTISCRASQDIRNYLNWYQQKPGKAPKLLIFYTSKLHSGVPSRFSGSGSGTDYTLTISSLQPEDIATYYCQQGLTPPLTFGGGTKVEIKRTVAAPDIQMTQSPSSLSASVGDRVTITCRASQLVSSAVAWYQQKPGKAPKLLIYWASARHTGVPSRFSGSGSGTDFTLTISSLQPEDFATYYCQQHYKTPFTFGQGTKLEIKR
B7: the “C-Terminal VD huTNFα Neutralization Assay IC50” value was 0.076 nM.

B8: DVD2692 (bispecific antibody, IgG1)
VH: EVTLRESGPGLVKPTQTLTLTCTLYGFSLSTSDMGVDWIRQPPGKGLEWLAHIWWDDVKRYNPALKSRLTISKDTSKNQVVLKLTSVDPVDTATYYCARTVSSGYIYYAMDYWGQGTLVTVSSASTKGPSVFPLAPEVQLVESGGGLVQPGGSLRLSCAASGFTFSNYGVTWVRQAPGKGLEWVSMIWADGSTHYASSVKGRFTISRDNSKNTLYLQMNSLRAEDTAVYYCAREWQHGPVAYWGQGTLVTVSS
VL: DIQMTQSPSSLSASVGDRVTISCRASQDIRNYLNWYQQKPGKAPKLLIFYTSKLHSGVPSRFSGSGSGTDYTLTISSLQPEDIATYYCQQGLTPPLTFGGGTKVEIKRTVAAPDIQMTQSPSSLSASVGDRVTITCRASQLVSSAVAWYQQKPGKAPKLLIYWASARHTGVPSRFSGSGSGTDFTLTISSLQPEDFATYYCQQHYKTPFTFGQGTKLEIKR
In the case of B8, the “C-Terminal VD huTNFα Neutralization Assay IC50” value stood at 0.04 nM.

B9: DVD2741 (bispecific antibody, IgG1)
VH: EVTLRESGPGLVKPTQTLTLTCTLYGFSLSTSDMGVDWIRQPPGKGLEWLAHIWWDDVKRYNPALKSRLTISKDTSKNQVVLKLTSVDPVDTATYYCARTVSSGYIYYAMDYWGQGTLVTVSSASTKGPEVQLVESGGGLVQPGGSLRLSCAASGFTFSNYGVEWVRQAPGKGLEWVSGIWADGSTHYADTVKSRFTISRDNSKNTLYLQMNSLRAEDTAVYYCAREWQHGPVAYWGQGTLVTVSS
VL: DIQMTQSPSSLSASVGDRVTISCRASQDIRNYLNWYQQKPGKAPKLLIFYTSKLHSGVPSRFSGSGSGTDYTLTISSLQPEDIATYYCQQGLTPPLTFGGGTKVEIKRTVAAPSVFIFPPDIQMTQSPSSLSASVGDRVTITCKASQLVSSAVAWYQQKPGKAPKLLIYWASTLHTGVPSRFSGSGSGTDFTLTISSLQPEDFATYYCQQHYRTPFTFGQGTKLEIKR
As for B9, the “C-Terminal VD huTNFα Neutralization Assay IC50” value amounted to 0.202 nM.

B10: DVD2742 (bispecific antibody, IgG1)
VH: EVTLRESGPGLVKPTQTLTLTCTLYGFSLSTSDMGVDWIRQPPGKGLEWLAHIWWDDVKRYNPALKSRLTISKDTSKNQVVLKLTSVDPVDTATYYCARTVSSGYIYYAMDYWGQGTLVTVSSASTKGPSVFPLAPEVQLVESGGGLVQPGGSLRLSCAASGFTFSNYGVEWVRQAPGKGLEWVSGIWADGSTHYADTVKSRFTISRDNSKNTLYLQMNSLRAEDTAVYYCAREWQHGPVAYWGQGTLVTVSS
VL: DIQMTQSPSSLSASVGDRVTISCRASQDIRNYLNWYQQKPGKAPKLLIFYTSKLHSGVPSRFSGSGSGTDYTLTISSLQPEDIATYYCQQGLTPPLTFGGGTKVEIKRTVAAPDIQMTQSPSSLSASVGDRVTITCKASQLVSSAVAWYQQKPGKAPKLLIYWASTLHTGVPSRFSGSGSGTDFTLTISSLQPEDFATYYCQQHYRTPFTFGQGTKLEIKR
As for B10, the “C-Terminal VD huTNFα Neutralization Assay IC50” value stood at 0.129 nM.

B11: DVD2739 (bispecific antibody, IgG1)
VH: EVTLRESGPGLVKPTQTLTLTCTLYGFSLSTSDMGVDWIRQPPGKGLEWLAHIWWDDVKRYNPALKSRLTISKDTSKNQVVLKLTSVDPVDTATYYCARTVSSGYIYYAMDYWGQGTLVTVSSASTKGPEVQLVESGGGLVQPGGSLRLSCAASGFTFSNYGVEWVRQAPGKGLEWVSGIWADGSTHYADTVKSRFTISRDNSKNTLYLQMNSLRAEDTAVYYCAREWQHGPVAYWGQGTLVTVSS
VL: DIQMTQSPSSLSASVGDRVTISCRASQDIRNYLNWYQQKPGKAPKLLIFYTSKLHSGVPSRFSGSGSGTDYTLTISSLQPEDIATYYCQQGLTPPLTFGGGTKVEIKRTVAAPDIQMTQSPSSLSASVGDRVTITCKASQLVSSAVAWYQQKPGKAPKLLIYWASTLHTGVPSRFSGSGSGTDFTLTISSLQPEDFATYYCQQHYRTPFTFGQGTKLEIKR
As to B11, the “C-Terminal VD huTNFα Neutralization Assay IC50” value is 0.517 nM.
